Positions of bridges follow the written chain, without caps; N, C: chain ends. Non-standard residues stand in square brackets, D forms with d. No end group written: not given here. Aib = CC(C)(N)C(=O)O
How the values were obtained:
IGFBP-1 [1] = target: T1, IGFBP-1 (human, UniProt P08833 26-259); test: BIAcore competition: peptide inhibits IGFBP-1 binding to IGF-I; ratio to bp1-01 (wt)
T1 construct: Biotinylated in the ELISA assays; also called rhIGFBP-1
T1 sequence (looked up): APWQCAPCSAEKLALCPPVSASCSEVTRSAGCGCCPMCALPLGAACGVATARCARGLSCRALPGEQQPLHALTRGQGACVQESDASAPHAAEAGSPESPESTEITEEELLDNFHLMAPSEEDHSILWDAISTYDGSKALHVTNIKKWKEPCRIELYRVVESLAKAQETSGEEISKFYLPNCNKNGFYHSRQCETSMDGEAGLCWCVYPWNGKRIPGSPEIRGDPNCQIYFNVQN

IGFBP-1 [2] = target: T1, IGFBP-1; test: BIAcore competition: peptide inhibits IGFBP-1 binding to IGF-II; ratio to bp1-01 (wt)
[3] = target: T2, recombinant human IGFBP-3 (human, UniProt P17936 28-291); test: phage ELISA on IGFBP-3 plate, 50-fold phage dilution, with/without 100 nM IGF-I as competitor (FIG. 29)
T2 construct: also called rhIGFBP-3
Protocol: The plates were then washed ten times, as above, and a solution of rabbit anti-phage antibody mixed with a goat-anti-rabbit conjugate of horse radish peroxidase was added. After an incubation of 1 hour at room temperature, the plates were developed with a chromogenic substrate, o-phenylenediamine (Sigma). The reaction was stopped with addition of ½ volume of 2.5 M H_2SO_4. Optical density at 490 nm was measured on a spectrophotometric plate reader.
In each case, the phagemid clone was grown from a single colony overnight at 37° C. in a culture volume of 5 ml. The phage particles were precipitated and resuspended in 0.5 ml of PBS buffer.

IGFBP-1 [4] = target: T1, IGFBP-1; test: biotinylated-IGFBP-1 ELISA: peptide inhibits IGFBP-1 binding to IGF-I; ratio to bp1-01 (wt)
IGFBP-1 [5] = target: T1, IGFBP-1; test: ELISA plate assay: peptide inhibits IGFBP-1 binding to IGF-I; ratio to bp1-01 (wt)
IGFBP-1 [6] = target: T1, IGFBP-1; test: BIAcore competition (starred): peptide inhibits IGFBP-1 binding to IGF-I; ratio to bp1-01 (wt)
IGFBP-3 [7] = target: T3, IGFBP-3 (human, UniProt P17936 28-291); test: BIAcore competition: peptide inhibits IGFBP-3 binding to IGF-I; ratio to bp3-01-ox
T3 construct: also called rhIGFBP-3

IGFBP-3 [8] = target: T3, IGFBP-3; test: BIAcore competition: peptide inhibits IGFBP-3 binding to immobilized IGF-I

T3 sequence (P17936 28-291 limits assumed): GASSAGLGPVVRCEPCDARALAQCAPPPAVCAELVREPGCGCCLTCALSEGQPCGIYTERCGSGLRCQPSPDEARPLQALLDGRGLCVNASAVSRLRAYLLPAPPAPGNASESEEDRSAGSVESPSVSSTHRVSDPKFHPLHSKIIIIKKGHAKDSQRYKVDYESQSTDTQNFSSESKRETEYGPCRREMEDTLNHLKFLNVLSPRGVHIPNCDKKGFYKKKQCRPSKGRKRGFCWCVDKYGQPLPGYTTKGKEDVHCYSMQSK
T2 sequence (P17936 28-291 limits assumed): as above

With CRAGPLQWLCAKYFG (Ala-scan variant of bp1-01) [bp1-01 E11A] the “IC50 (mut)/IC50 (wt)” value (IGFBP-1 [1]) was 2.9 ratio and the “IC50 (mut)/IC50 (wt)” value (IGFBP-1 [2]) was 2.4 ratio.

With CRAGPLQWLCEKYAG (Ala-scan variant of bp1-01) [bp1-01 F14A] the “IC50 (mut)/IC50 (wt)” value (IGFBP-1 [1]) was 6.2 ratio and the “IC50 (mut)/IC50 (wt)” value (IGFBP-1 [2]) was 5.8 ratio.

With CRAGPLQWLCEAYFG (Ala-scan variant of bp1-01) [bp1-01 K12A] the “IC50 (mut)/IC50 (wt)” value (IGFBP-1 [1]) was 7.9 ratio and the “IC50 (mut)/IC50 (wt)” value (IGFBP-1 [2]) was 5.3 ratio.

In the case of CRAGPAQWLCEKYFG (Ala-scan variant of bp1-01) [bp1-01 L6A], the “IC50 (mut)/IC50 (wt)” value (IGFBP-1 [1]) is reported as 30.3 ratio and the “IC50 (mut)/IC50 (wt)” value (IGFBP-1 [2]) is reported as 34.7 ratio.

For CRAGPLQWACEKYFG (Ala-scan variant of bp1-01) [bp1-01 L9A], the “IC50 (mut)/IC50 (wt)” value (IGFBP-1 [1]) was 33.2 ratio and the “IC50 (mut)/IC50 (wt)” value (IGFBP-1 [2]) was 29.7 ratio.

CRAGPLAWLCEKYFG (Ala-scan variant of bp1-01) [bp1-01 Q7A] was tested, and the “IC50 (mut)/IC50 (wt)” value (IGFBP-1 [1]) was 0.7 ratio and the “IC50 (mut)/IC50 (wt)” value (IGFBP-1 [2]) was 0.6 ratio.

B1: bp1-01 R2A (peptide)
peptide: CAAGPLQWLCEKYFG
modifications: disulfide 1-10 (inferred)
notes: Ala-scan variant of bp1-01; termini and disulfide not restated
B1 was tested, and the “IC50 (mut)/IC50 (wt)” value (IGFBP-1 [1]) was 0.9 ratio and the “IC50 (mut)/IC50 (wt)” value (IGFBP-1 [2]) was 0.9 ratio.

In the case of CRAGPLQALCEKYFG (Ala-scan variant of bp1-01) [bp1-01 W8A], the “IC50 (mut)/IC50 (wt)” value (IGFBP-1 [1]) is reported as 7.4 ratio and the “IC50 (mut)/IC50 (wt)” value (IGFBP-1 [2]) is reported as 6.4 ratio.

CRAGPLQWLCEKAFG (Ala-scan variant of bp1-01) [bp1-01 Y13A] was tested, and the “IC50 (mut)/IC50 (wt)” value (IGFBP-1 [1]) was 12.5 ratio and the “IC50 (mut)/IC50 (wt)” value (IGFBP-1 [2]) was 14.6 ratio.

B2: peptide-phage clone 4C3.2 (g8 display) (peptide, not shown: large carriers)
chain: ELDGWVCIKVGEQNLCYLAE
modifications: not fully specified (C-terminus, bridges); cysteine pairing not given here; also: polyvalent display on phage particle
notes: Tested as a whole phage particle with polyvalent display
For B2, the “percent inhibition of phage binding by IGF-I” value (“percent inhibition” below) [3] was > 40%.

B3: peptide-phage clone 4D3.8 (g8 display) (peptide, not shown: large carriers)
chain: SEEVCWPVAEWYLCNILGP
modifications: not fully specified (C-terminus, bridges); cysteine pairing not given here; also: polyvalent display on phage particle
notes: as for B2
In the case of B3, the “percent inhibition” value [3] is reported as > 40%.

B4: bp1-01 R2a (peptide)
peptide: C[dA]AGPLQWLCEKYFG
modifications: disulfide 1-10
notes: Non-natural variant of bp1-01 (a = D-alanine)
For B4, the “IC50 (mut)/IC50 (wt)” value (IGFBP-1 [4]) was 50 ratio.

For CR[dA]GPLQWLCEKYFG (disulfide 1-10 (inferred)) [bp1-01 A3a], the “IC50 (mut)/IC50 (wt)” value (IGFBP-1 [4]) was 34 ratio.

B5: bp1-01 G4a (peptide)
peptide: CRA[dA]PLQWLCEKYFG
modifications: disulfide 1-10
notes: as for B4
With B5 the “IC50 (mut)/IC50 (wt)” value (IGFBP-1 [4]) was 0.6 ratio.

B6: bp1-01 L6a (peptide)
peptide: CRAGP[dA]QWLCEKYFG
modifications: disulfide 1-10
notes: as for B4
B6 was tested, and the “IC50 (mut)/IC50 (wt)” value (IGFBP-1 [4]) was 400 ratio.

B7: bp1-01 Q7 aib (peptide)
peptide: CRAGPL[Aib]WLCEKYFG
modifications: disulfide 1-10
notes: Non-natural variant of bp1-01; X stands for aib
With B7 the “IC50 (mut)/IC50 (wt)” value (IGFBP-1 [4]) was 1.6 ratio.

B8: bp1-01 W8aib (peptide)
peptide: CRAGPLQ[Aib]LCEKYFG
modifications: disulfide 1-10
notes: as for B7
In the case of B8, the “IC50 (mut)/IC50 (wt)” value (IGFBP-1 [4]) is reported as 24 ratio.

B9: bp1-01 L9aib (peptide)
peptide: CRAGPLQW[Aib]CEKYFG
modifications: disulfide 1-10
notes: as for B7
With B9 the “IC50 (mut)/IC50 (wt)” value (IGFBP-1 [4]) was 400 ratio.

B10: bp1-01 E11aib (peptide)
peptide: CRAGPLQWLC[Aib]KYFG
modifications: disulfide 1-10
notes: as for B7
In the case of B10, the “IC50 (mut)/IC50 (wt)” value (IGFBP-1 [4]) is reported as 1 ratio.

B11: bp1-01 K12aib (peptide)
peptide: CRAGPLQWLCE[Aib]YFG
modifications: disulfide 1-10
notes: as for B7
B11 was tested, and the “IC50 (mut)/IC50 (wt)” value (IGFBP-1 [4]) was 2 ratio.

B12: bp1-01 Y13aib (peptide)
peptide: CRAGPLQWLCEK[Aib]FG
modifications: disulfide 1-10
notes: as for B7
For B12, the “IC50 (mut)/IC50 (wt)” value (IGFBP-1 [4]) was 7.1 ratio.

B13: peptide-phage clone 4D3.9 (g8 display) (peptide, not shown: large carriers)
chain: ETVANCDCYMDLCLCYGSDR
modifications: cysteine pairing not given here; also: C-terminal fusion to linker and M13 g8p, phage-displayed
notes: as for B2
For B13, the “percent inhibition” value [3] was > 40%.

B14: bp1-01 F14aib (peptide)
peptide: CRAGPLQWLCEKY[Aib]G
modifications: disulfide 1-10
notes: as for B7
With B14 the “IC50 (mut)/IC50 (wt)” value (IGFBP-1 [4]) was 3 ratio.

B15: bp1-02 (peptide)
peptide: SEVGCRAGPLQWLCEKYFG-NH2
modifications: disulfide 5-14; N-terminus assumed
SMILES: CC(C)C[C@@H]1NC(=O)[C@H](Cc2c[nH]c3ccccc23)NC(=O)[C@H](CCC(N)=O)NC(=O)[C@H](CC(C)C)NC(=O)[C@@H]2CCCN2C(=O)CNC(=O)[C@H](C)NC(=O)[C@H](CCCNC(=N)N)NC(=O)[C@@H](NC(=O)CNC(=O)[C@@H](NC(=O)[C@H](CCC(=O)O)NC(=O)[C@@H](N)CO)C(C)C)CSSC[C@@H](C(=O)N[C@@H](CCC(=O)O)C(=O)N[C@@H](CCCCN)C(=O)N[C@@H](Cc2ccc(O)cc2)C(=O)N[C@@H](Cc2ccccc2)C(=O)NCC(N)=O)NC1=O
notes: 19-mer variant of bp1-01
In the case of B15, the “IC50 (mut)/IC50 (wt)” value (IGFBP-1 [5]) is reported as 0.37 ratio.

B16: peptide-phage clone 4D3.12 (g8 display) (peptide, not shown: large carriers)
chain: AEWAECWIAGDQLLCVGKDN
modifications: not fully specified (C-terminus, bridges); cysteine pairing not given here; also: polyvalent display on phage particle
notes: as for B2
In the case of B16, the “percent inhibition” value [3] is reported as > 40%.

For CRKGPLQWLCELYF (g8 bp1-01 selectant) [bp1-10], the “IC50 (mut)/IC50 (wt)” value (IGFBP-1 [6]) was 1.1 ratio.

With CAAGPLQWLCEKYF (g8 bp1-01 selectant) [bp1-15] the “IC50 (mut)/IC50 (wt)” value (IGFBP-1 [5]) was 0.68 ratio.

CRAGPLQWLCERYF (g8 bp1-01 selectant) [bp67] was tested, and the “IC50 (mut)/IC50 (wt)” value (IGFBP-1 [5]) was 0.34 ratio.

CRAGPLQWLCEKFF (g8 bp1-01 selectant) [bp68] was tested, and the “IC50 (mut)/IC50 (wt)” value (IGFBP-1 [5]) was 0.39 ratio.

With CRAGPLQWLCERFF (g8 bp1-01 selectant) [bp1028] the “IC50 (mut)/IC50 (wt)” value (IGFBP-1 [5]) was 4.6 ratio.

CREGPLQWLCERFF (g8 bp1-01 selectant) [bp1029] was tested, and the “IC50 (mut)/IC50 (wt)” value (IGFBP-1 [5]) was 1.7 ratio.

For CKAGPLLWLCERFF (g8 bp1-01 selectant) [bp1027], the “IC50 (mut)/IC50 (wt)” value (IGFBP-1 [5]) was 8.8 ratio.

With CKEGPLLWLCERFF (g8 bp1-01 selectant) [bp1030] the “IC50 (mut)/IC50 (wt)” value (IGFBP-1 [5]) was 4.3 ratio.

In the case of ASEEVCWPVAEWYLCNMWGR [4d3.3], the “IC50 (mut)/IC50 (wt)” value (IGFBP-3 [7]) is reported as 2.8 ratio and the IC50 (IGFBP-3 [8]) is reported as 5.6 µM.

In the case of ASEEVCWPVAEWYLCN (bp3-01-ox variant) [bp3-30], the “IC50 (mut)/IC50 (wt)” value (IGFBP-3 [7]) is reported as 2.8 ratio and the IC50 (IGFBP-3 [8]) is reported as 5.6 µM.

GPETCWPVAEWYLCN (bp3-01-ox variant) [bp3-41] was tested, and the “IC50 (mut)/IC50 (wt)” value (IGFBP-3 [7]) was 2 ratio and the IC50 (IGFBP-3 [8]) was 4 µM.

For Ac-SEEVCWPVAEWYLCN-NH2 (disulfide 5-14 (inferred)) [bp3-40], the “IC50 (mut)/IC50 (wt)” value (IGFBP-3 [7]) was 0.33 ratio.

With SEEVCWPVAEWYLCN-NH2 (disulfide 5-14 (inferred)) [bp3-39] the “IC50 (mut)/IC50 (wt)” value (IGFBP-3 [7]) was 0.33 ratio.

For SEEVCWPVAEWYLCN (also called BP15) [bp3-15], the “IC50 (mut)/IC50 (wt)” value (IGFBP-3 [7]) was 0.36 ratio and the IC50 (IGFBP-3 [8]) was 0.72 µM.

EEVCWPVAEWYLCN (bp3-01-ox variant) [bp3-28] was tested, and the “IC50 (mut)/IC50 (wt)” value (IGFBP-3 [7]) was 2.7 ratio and the IC50 (IGFBP-3 [8]) was 5.4 µM.

EVCWPVAEWYLCN (bp3-01-ox variant) [bp3-27] was tested, and the “IC50 (mut)/IC50 (wt)” value (IGFBP-3 [7]) was 1.4 ratio and the IC50 (IGFBP-3 [8]) was 2.8 µM.

CWPVAEWYLCN [bp3-25 (SEQ ID NO:106)] was tested, and the “IC50 (mut)/IC50 (wt)” value (IGFBP-3 [7]) was 23 ratio and the IC50 (IGFBP-3 [8]) was 46 µM.

In the case of WPVAEWYLCN [bp3-24 (SEQ ID NO:107)], the “IC50 (mut)/IC50 (wt)” value (IGFBP-3 [7]) is reported as > 500 ratio.

Reference: patent US6949349
